Measured values as given in patent US20150258192A1, “COMPOSITIONS AND METHODS FOR PREVENTING OR TREATING CHRONIC LUNG ALLOGRAFT DYSFUNCTION (CLAD) AND IDIOPATHIC PULMONARY FIBROSIS (IPF)” (priority 2014, published 2015).
No end group written: not given here.

What was measured:
Assay in all cases: Kinase Profiling Assay
Format in all cases: biochemical
Settings in all cases: peptide 100 μM
MINK(h) = target: T1, MINK(h) (Homo sapiens, UniProt Q8N4C8)
T1 construct: purchased Millipore
Outline: (§1)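 Activity remaining relative to an uninhibited control was determined by scintillation counting of labeled substrate bound to a negatively charged filter. Radiolabeled phosphate came from ATP; the substrate carried positive charge. Duplicate measurements, within a 266-kinase human panel.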

CLK3(h) = CLK3(h) (Homo sapiens, UniProt P49761)
Outline: as §1

CDK5/p35(h) = CDK5/p35(h) (Homo sapiens, UniProt Q00535)
Outline: as §1

CaMKIIβ(h) = CaMKIIβ(h) (Homo sapiens, UniProt Q13554)
Outline: as §1

CK2(h) = CK2(h) (Homo sapiens, UniProt P68400)
Outline: as §1

PKBβ(h) = PKBβ(h) (Homo sapiens, UniProt P31751)
Outline: as §1

EphB2(h) = target: T2, EphB2(h) (Homo sapiens, UniProt P29323)
T2 sequence (P29323 19-1055): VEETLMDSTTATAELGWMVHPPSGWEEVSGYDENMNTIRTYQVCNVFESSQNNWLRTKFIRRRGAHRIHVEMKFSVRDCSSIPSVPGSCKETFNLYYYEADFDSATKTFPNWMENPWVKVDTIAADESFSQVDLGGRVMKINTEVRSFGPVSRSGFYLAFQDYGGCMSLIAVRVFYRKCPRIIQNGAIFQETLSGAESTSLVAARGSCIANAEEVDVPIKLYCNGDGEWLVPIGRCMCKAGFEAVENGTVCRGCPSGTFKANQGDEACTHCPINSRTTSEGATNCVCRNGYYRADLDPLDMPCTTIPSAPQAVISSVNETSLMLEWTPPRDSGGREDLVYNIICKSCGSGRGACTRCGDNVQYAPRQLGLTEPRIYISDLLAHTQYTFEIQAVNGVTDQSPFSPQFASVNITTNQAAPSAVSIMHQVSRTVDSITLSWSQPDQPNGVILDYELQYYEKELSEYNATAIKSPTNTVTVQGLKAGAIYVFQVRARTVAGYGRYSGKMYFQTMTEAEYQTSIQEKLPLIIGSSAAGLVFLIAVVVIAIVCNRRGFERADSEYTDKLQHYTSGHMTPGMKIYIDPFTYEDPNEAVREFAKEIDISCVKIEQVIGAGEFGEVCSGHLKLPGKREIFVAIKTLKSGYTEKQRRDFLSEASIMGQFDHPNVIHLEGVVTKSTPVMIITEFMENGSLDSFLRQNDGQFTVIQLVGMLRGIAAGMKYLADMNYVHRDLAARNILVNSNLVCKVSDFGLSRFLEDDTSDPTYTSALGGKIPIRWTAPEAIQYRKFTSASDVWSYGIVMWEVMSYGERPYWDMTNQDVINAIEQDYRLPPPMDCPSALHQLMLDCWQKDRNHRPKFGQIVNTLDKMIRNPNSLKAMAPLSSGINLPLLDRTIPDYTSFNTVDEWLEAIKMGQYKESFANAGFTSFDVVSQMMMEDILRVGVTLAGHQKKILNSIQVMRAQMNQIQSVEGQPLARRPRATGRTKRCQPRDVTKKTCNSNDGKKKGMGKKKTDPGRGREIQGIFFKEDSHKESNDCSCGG
Outline: as §1

Ros(h) = Ros(h) (Homo sapiens, UniProt P08922)
Outline: as §1

MSSK1(h) = target: T3, MSSK1(h) (Homo sapiens, UniProt Q9UPE1)
T3 construct: purchased Millipore
Outline: as §1

Fer(h) = Fer(h) (Homo sapiens, UniProt P16591)
Outline: as §1

cKit(V654A)(h) = cKit(V654A)(h) (Homo sapiens, UniProt P10721, V654A)
Outline: as §1

GSK3α(h) = target: T4, GSK3α(h) (Homo sapiens, UniProt P49840)
T4 construct: purchased Millipore
Outline: as §1

JNK1α1(h) = target: T5, JNK1α1(h) (Homo sapiens, UniProt P45983)
T5 construct: purchased Millipore
Outline: as §1

Chain of PKBβ(h) (P31751 whole entry): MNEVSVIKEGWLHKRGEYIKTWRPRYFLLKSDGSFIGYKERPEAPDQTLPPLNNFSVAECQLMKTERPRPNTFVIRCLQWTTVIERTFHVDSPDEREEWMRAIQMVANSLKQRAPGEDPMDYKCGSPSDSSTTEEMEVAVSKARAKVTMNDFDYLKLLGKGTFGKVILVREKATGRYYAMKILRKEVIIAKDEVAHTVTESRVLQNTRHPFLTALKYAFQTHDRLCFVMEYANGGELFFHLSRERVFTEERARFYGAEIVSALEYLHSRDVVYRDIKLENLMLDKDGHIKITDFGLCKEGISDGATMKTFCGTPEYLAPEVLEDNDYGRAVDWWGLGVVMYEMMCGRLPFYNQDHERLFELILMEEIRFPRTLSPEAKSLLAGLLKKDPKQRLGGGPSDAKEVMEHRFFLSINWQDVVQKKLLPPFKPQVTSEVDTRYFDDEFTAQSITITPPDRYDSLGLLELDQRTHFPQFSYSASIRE
T1 sequence (Q8N4C8 whole entry): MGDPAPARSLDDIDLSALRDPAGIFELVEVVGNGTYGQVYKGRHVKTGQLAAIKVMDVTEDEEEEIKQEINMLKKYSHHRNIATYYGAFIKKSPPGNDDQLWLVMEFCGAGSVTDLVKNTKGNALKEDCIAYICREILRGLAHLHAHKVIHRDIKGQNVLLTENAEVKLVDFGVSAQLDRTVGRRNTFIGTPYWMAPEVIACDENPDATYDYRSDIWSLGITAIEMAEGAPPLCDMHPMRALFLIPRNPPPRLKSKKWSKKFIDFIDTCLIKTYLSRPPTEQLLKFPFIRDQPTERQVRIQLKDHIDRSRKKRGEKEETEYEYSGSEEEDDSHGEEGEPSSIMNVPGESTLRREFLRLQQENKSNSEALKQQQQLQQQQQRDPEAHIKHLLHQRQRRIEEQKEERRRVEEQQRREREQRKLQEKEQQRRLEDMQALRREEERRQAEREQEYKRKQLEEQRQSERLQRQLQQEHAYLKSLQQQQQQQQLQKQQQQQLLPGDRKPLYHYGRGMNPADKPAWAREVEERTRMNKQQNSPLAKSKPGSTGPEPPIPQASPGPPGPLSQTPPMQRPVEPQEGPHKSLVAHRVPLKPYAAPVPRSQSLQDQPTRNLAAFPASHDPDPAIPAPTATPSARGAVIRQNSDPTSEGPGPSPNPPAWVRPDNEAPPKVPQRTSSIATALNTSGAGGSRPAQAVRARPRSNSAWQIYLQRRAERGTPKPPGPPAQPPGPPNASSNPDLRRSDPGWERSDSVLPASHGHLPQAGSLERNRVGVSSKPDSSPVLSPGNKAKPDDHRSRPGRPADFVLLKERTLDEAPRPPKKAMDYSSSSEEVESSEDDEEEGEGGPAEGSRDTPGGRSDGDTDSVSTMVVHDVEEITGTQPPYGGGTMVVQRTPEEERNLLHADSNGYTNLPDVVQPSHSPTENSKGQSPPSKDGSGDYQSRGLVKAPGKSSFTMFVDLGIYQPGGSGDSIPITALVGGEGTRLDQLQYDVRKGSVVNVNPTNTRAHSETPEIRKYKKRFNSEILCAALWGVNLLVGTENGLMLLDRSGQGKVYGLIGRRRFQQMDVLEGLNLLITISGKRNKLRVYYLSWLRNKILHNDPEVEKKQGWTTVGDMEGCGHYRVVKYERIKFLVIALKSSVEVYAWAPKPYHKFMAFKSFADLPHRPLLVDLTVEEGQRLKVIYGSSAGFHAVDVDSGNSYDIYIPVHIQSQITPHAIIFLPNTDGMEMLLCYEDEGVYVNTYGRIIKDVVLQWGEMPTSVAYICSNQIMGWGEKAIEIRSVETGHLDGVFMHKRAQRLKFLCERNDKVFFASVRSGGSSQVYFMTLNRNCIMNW
Chain of CLK3(h) (P49761 whole entry): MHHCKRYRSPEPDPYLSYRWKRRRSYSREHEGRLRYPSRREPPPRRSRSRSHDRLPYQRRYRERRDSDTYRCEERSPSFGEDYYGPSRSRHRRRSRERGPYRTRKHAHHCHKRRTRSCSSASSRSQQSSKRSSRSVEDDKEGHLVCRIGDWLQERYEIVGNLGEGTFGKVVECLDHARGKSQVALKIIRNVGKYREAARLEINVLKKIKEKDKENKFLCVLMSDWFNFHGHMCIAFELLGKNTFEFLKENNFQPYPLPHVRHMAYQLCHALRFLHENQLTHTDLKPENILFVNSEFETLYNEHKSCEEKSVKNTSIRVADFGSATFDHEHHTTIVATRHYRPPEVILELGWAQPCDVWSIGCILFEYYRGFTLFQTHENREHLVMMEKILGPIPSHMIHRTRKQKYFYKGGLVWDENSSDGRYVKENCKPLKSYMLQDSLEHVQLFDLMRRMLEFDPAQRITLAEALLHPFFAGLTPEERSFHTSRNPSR
Chain of Fer(h) (P16591 whole entry): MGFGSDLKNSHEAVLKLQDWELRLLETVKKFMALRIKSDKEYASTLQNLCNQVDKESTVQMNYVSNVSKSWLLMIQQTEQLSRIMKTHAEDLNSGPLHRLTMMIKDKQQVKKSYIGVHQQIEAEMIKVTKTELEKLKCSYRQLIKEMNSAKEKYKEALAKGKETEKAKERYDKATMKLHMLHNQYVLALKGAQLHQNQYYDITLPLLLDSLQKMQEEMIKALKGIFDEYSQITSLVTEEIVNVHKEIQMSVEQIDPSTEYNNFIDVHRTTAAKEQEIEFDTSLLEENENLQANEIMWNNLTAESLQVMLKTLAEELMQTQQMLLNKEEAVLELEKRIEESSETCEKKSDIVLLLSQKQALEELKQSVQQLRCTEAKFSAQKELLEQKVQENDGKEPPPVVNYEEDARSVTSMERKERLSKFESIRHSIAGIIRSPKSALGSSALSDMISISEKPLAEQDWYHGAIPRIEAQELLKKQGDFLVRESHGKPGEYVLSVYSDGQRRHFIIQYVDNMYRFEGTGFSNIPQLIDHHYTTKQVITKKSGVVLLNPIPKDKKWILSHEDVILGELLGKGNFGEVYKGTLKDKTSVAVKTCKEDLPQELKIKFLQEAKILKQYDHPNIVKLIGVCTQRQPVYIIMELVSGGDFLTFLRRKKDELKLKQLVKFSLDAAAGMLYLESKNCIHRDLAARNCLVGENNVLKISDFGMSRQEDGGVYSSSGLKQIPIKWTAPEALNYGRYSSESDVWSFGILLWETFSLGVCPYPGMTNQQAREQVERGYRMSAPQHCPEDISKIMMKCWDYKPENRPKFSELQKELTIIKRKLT
T4 sequence (P49840 whole entry): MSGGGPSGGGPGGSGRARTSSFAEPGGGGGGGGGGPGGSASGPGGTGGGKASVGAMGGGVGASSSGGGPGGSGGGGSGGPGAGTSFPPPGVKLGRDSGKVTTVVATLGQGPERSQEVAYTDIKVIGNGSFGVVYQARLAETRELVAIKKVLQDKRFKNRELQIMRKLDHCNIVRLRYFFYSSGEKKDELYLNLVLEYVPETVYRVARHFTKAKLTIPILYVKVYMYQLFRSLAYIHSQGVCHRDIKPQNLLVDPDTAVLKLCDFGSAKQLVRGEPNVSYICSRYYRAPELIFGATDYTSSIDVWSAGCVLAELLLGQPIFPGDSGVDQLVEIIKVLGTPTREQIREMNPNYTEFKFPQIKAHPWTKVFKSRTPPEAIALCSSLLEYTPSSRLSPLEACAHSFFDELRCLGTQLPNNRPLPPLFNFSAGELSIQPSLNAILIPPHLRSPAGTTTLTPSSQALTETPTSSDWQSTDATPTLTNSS
Chain of CaMKIIβ(h) (Q13554 whole entry): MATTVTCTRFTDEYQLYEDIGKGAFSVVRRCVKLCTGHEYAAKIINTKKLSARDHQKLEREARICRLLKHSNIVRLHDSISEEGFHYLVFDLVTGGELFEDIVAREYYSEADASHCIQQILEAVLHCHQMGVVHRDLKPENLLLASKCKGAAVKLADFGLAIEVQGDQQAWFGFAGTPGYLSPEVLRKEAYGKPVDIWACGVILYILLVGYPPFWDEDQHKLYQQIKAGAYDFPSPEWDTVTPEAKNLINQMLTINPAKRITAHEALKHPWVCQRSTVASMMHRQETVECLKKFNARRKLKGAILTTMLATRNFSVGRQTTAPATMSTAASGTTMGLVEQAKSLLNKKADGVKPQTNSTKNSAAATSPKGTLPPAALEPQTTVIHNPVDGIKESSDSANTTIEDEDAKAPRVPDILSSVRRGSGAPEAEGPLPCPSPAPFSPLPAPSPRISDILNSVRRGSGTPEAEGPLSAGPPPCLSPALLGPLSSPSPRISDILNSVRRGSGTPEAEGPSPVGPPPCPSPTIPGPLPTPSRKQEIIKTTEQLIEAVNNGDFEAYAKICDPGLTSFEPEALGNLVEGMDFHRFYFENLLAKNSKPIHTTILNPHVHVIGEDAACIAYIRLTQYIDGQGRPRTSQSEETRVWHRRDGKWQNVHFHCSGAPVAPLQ
Chain of CK2(h) (P68400 whole entry): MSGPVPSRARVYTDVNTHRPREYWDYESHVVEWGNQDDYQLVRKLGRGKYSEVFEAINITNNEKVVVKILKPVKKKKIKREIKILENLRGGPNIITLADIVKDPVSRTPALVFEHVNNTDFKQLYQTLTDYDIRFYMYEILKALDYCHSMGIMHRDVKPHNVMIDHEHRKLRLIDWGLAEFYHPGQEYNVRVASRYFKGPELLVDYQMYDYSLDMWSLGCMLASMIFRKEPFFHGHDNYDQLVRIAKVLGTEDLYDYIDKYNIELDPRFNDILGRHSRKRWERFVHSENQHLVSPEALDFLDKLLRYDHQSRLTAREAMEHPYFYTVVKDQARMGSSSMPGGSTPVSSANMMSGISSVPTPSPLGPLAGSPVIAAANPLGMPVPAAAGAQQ
Chain of CK2(h) (P67870 whole entry partner): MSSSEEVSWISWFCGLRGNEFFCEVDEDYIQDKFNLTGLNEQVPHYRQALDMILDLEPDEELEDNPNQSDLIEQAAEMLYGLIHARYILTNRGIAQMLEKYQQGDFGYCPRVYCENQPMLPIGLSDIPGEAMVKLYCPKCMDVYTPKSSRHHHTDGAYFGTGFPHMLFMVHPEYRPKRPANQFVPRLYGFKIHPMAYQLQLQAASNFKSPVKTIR

Sequence	% activity (MINK(h)) [%]	% activity (CLK3(h)) [%]	% activity (CDK5/p35(h)) [%]	% activity (CaMKIIβ(h)) [%]	% activity (CK2(h)) [%]	% activity (PKBβ(h)) [%]	% activity (EphB2(h)) [%]	% activity (Ros(h)) [%]	% activity (MSSK1(h)) [%]	% activity (Fer(h)) [%]	% activity (cKit(V654A)(h)) [%]	% activity (GSK3α(h)) [%]	% activity (JNK1α1(h)) [%]
HRRIKAWLKKIKALARQLGVAA (Mammal) [MMI-0500]	5	76	59	3	93	21	70	150	22	196	223	175	
YARAAARQARAKALNRQLGVA (Mammal) [MMI-0200]		76	92	53	83	250	128	86	100	101			
YARAAARQARAKALARQLGVAA [MMI-0100]	96	108					68		82		69		91
FAKLAARLYRKALARQLGVAA [MMI-0300]	48	61	79	2	90	84	18	95	77	130	134	157	97
KAFAKLAARLYRKALARQLGVAA [MMI-0400]	52	84	76	11	101	98	22	99	75	108	150	164	98
